We go through one molecule from article doi:10.1101/2023.08.07.552313 (bioRxiv, 2023).

This test addresses NEIL1 DNA glycosylase (Homo sapiens (; the 390 aa …, UniProt Q96FI4). As to the kind of experiment: two-hybrid.

Sequence of NEIL1 DNA glycosylase (Homo sapiens (Q96FI4 whole entry): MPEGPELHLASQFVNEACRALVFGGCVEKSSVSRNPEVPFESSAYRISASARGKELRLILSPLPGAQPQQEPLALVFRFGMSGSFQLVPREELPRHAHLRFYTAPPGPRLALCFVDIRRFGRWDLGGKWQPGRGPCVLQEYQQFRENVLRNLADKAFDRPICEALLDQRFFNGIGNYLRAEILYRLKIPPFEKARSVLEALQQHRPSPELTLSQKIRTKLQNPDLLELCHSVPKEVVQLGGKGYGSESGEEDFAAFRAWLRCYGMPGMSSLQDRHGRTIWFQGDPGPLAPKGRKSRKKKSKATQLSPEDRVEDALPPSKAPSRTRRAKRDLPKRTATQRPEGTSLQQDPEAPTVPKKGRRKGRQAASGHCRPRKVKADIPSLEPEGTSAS

B1: A5 nanobody (anti-NEIL1 nanobody) (VHH)
VHH: EVQLQASGGGFVQPGGSLRLSCAASGATSERDIMGWFRQAPGKEREFVSAISYEPGGWHYYADSVKGRFTISRDNSKNTVYLQMNSLRAEDTATYYCAWQEIMYGEAYWRYWGQGTQVTVSS
In the case of B1, the binding result is given as “binds”.
